# Reference: patent US20060281090A1 (University of Washington, published 2006)
# B1: purified recombinant Ad35 fiber knob domain (other)
# chain: SINTLWTGINPPPNCQIVENTNTNDGKLTLVLVKNGGLVNGYVSLVGVSDTVNQMFTQKTANIQLRLYFDSSGNLLTEESDLKIPLKNKSSTATSETVASSKAFMPSTTAYPFNTTTRDSENYIHGICYYMTSYDRSLFPLNISIMLNSRMISSNVAYAIQFEWNLNASESPESNIATLTTSPFFFSYITEDDN
# notes: also called Ad35 knob; biotin-conjugated Ad35 fiber knob domain
# B2: purified recombinant Ad5 fiber knob domain (other)
# chain: DKLTLWTTPAPSPNCRLNAEKDAKLTLVLTKCGSQILATVSVLAVKGSLAPISGTVQSAHLIIRFDENGVLLNNSFLDPEYWNFRNGDLTEGTAYTNAVGFMPNLSAYPKSHGKTAKSNIVSQVYLNGDKTKPVTLTITLNGTQETGDTTPSAYSMSFSWDWSGHNYINEIFATSSYTFSYIAQE
# notes: also called Ad5 knob
# Tests used:
# [1] = molecular target: recombinant human coagulation factor IX (human) (UniProt P00740); assay: cell-based or functional assay
# [2] = molecular target: T1, recombinant human coagulation factor IX (human, UniProt P00740 47-461); assay: SPR, FIX immobilized on the sensor, knob in solution
# T1 construct: also called FIX; human FIX
# T1 sequence (P00740 47-461 limits assumed): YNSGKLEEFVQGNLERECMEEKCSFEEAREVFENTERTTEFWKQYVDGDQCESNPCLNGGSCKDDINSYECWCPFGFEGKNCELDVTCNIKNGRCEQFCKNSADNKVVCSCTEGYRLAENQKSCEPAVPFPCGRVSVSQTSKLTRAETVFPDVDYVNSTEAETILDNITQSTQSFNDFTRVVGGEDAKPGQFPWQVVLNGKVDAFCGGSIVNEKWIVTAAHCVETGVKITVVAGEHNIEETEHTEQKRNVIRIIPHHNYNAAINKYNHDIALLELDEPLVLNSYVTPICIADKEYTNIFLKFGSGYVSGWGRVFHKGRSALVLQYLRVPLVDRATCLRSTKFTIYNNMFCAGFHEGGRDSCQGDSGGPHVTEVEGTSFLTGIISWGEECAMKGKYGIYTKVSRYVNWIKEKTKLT
# recombinant human coagulation factor IX (human), sequence (P00740 47-461 limits assumed): as above
Molecule,reporter gene activities in HSPG-expressing CHO-K1 cells infected with FIX compared to infection without FIX [1] [fold],transduction of primary human hepatocytes (luciferase activity) with FIX compared to without [1] [fold],binding result [2]
"Ad5F* virus (long-shafted Ad5-based vector, fiber knob aa 477 Y to A, C-terminal 6-His) (from UniProt P11818 1-581)",> 45,> 14,–
"Ad5/35L virus (Ad5 capsid, long Ad5 fiber shaft, Ad35 fiber knob domain) (from UniProt P11818 1-399)",> 45,–,–
B1,–,–,binds
B2,–,–,binds
